Earlier results, collected in patent US20260193255A1, “7-AZAINDOLE COMPOUNDS, PREPARATION METHOD THEREFOR, AND USE THEREOF” (Fudan University, priority 2022, published 2026).

Tested on: cachectic patients
Conditions: 30 mg/kg, Phase II; cited from earlier work

B1: Bimagrumab: antibody inhibitor of ActRIIB under development by Novartis (antibody, chains of the INN, looked up, V domains shown)
VH: QVQLVQSGAEVKKPGASVKVSCKASGYTFTSSYINWVRQAPGQGLEWMGTINPVSGSTSYAQKFQGRVTMTRDTSISTAYMELSRLRSDDTAVYYCARGGWFDYWGQGTLVTVSS
VL: QSALTQPASVSGSPGQSITISCTGTSSDVGSYNYVNWYQQHPGKAPKLMIYGVSKRPSGVSNRFSGSKSGNTASLTISGLQAEDEADYYCGTFAGGSYYGVFGGGTKLTVL
- Increase of muscle volume: 5.0-7.8%
